In patent US20150210998A1:
No end group written: not given here.

Target: His6-E6AP ligase (full-length, baculovirus-expressed) (human) (UniProt Q05086)
Test: inhibition of His6-E6AP-catalyzed 125I-polyubiquitin chain formation, semi-reciprocal plot; non-competitive versus UbcH7

Ki: 22 µM
Binder: Ac-NRIRMYSERRITVLYSL [N-acetyl-… peptide]
